Measured values taken from IntAct's records for PubMed 23105096.

B1: Ras-related protein Rab-26 (Homo sapiens), Q9ULW5 (parent)
chain: MSRKKTPKSKGASTPAASTLPTANGARPARSGTALSGPDAPPNGPLQPGRPSLGGGVDFYDVAFKVMLVGDSGVGKTCLLVRFKDGAFLAGTFISTVGIDFRNKVLDVDGVKVKLQMWDTAGQERFRSVTHAYYRDAHALLLLYDVTNKASFDNIQAWLTEIHEYAQHDVALMLLGNKVDSAHERVVKREDGEKLAKEYGLPFMETSAKTGLNVDLAFTAIAKELKQRSMKAPSEPRFRLHDYVKREGRGASCCRP

Variants of: B1
Conditions: with ada2b_human ADRA2B

| effect of a mutation on the interaction | Variant |
| --- | --- |
| decreasing interaction strength | MSRKKTPKSKGASTPAASTLPTANGARPARSGTALSGPDAPPNGPLQPGRPSLGGGVDFYDVAFKVMLVGDSGVGKTCLLVRFKDGAFLAGTFISTVGIDFRNKVLDVDGVKVKLQMWDTAGQERFRSVTHAYYRDAHALLLLYDVTNKASFDNIQAWLTEIHEYAQHDVALMLLGIKVDSAHERVVKREDGEKLAKEYGLPFMETSAKTGLNVDLAFTAIAKELKQRSMKAPSEPRFRLHDYVKREGRGASCCRP [N177I] |
| decreasing interaction strength | MSRKKTPKSKGASTPAASTLPTANGARPARSGTALSGPDAPPNGPLQPGRPSLGGGVDFYDVAFKVMLVGDSGVGKNCLLVRFKDGAFLAGTFISTVGIDFRNKVLDVDGVKVKLQMWDTAGQERFRSVTHAYYRDAHALLLLYDVTNKASFDNIQAWLTEIHEYAQHDVALMLLGNKVDSAHERVVKREDGEKLAKEYGLPFMETSAKTGLNVDLAFTAIAKELKQRSMKAPSEPRFRLHDYVKREGRGASCCRP [T77N] |

Variants of: B1
Conditions: with ada2b_human ADRA2B
Remark: another data set of the same source

| effect of a mutation on the interaction | Variant |
| --- | --- |
| disrupting interaction strength | MSRKKTPKSKGASTPAASTLPTANGARPARSGTALSGPDAPPNGPLQPGRPSLGGGVDFYDVAFKVMLVGDSGVGKTCLLVRFKDGAFLAGTFISTVGIDFRNKVLDVDGVKVKLQMWDTAGQERFRSVTHAYYRDAHALLLLYDVTNKASFDNIQAWLTEIHEYAQHDVALMLLGIKVDSAHERVVKREDGEKLAKEYGLPFMETSAKTGLNVDLAFTAIAKELKQRSMKAPSEPRFRLHDYVKREGRGASCCRP [N177I] |
